B1: HEEH_KT_rd6_3632 (parent)
chain: DAEELIELVERALKEGREIILLGVRITSEEAGKWFIEWIRRFL

Variants of: B1
Assay: folding stability dG (cDNA display proteolysis); higher = more stable
Details: PBS, room temperature

Point of comparison: T27S, “folding stability dG” value 3.67 kcal/mol. Against it:
- K33P — lower, 3.2 kcal/mol
- K33D — lower, 3.38 kcal/mol
- K33L — lower, 3.63 kcal/mol
- G16C — higher, 4.34 kcal/mol
- G16W — higher, 4 kcal/mol
- G16H — lower, 3.58 kcal/mol
- G16R — lower, 3.44 kcal/mol
- G16T — lower, 3.36 kcal/mol
- R11N — lower, 3.51 kcal/mol
- R11I — lower, 3.62 kcal/mol
- R11M — lower, 3.41 kcal/mol
- E30K — lower, 3.65 kcal/mol
- E30H — lower, 3.59 kcal/mol
- E30S — higher, 3.69 kcal/mol
- E30V — higher, 3.94 kcal/mol
- E30I — higher, 3.75 kcal/mol
- E30R — higher, 3.84 kcal/mol
- R17A — lower, 3.6 kcal/mol
- R17W — higher, 3.75 kcal/mol
- R17E — lower, 3.23 kcal/mol
- R17F — lower, 3.63 kcal/mol
- F35N — lower, 2.53 kcal/mol
- F35S — lower, 2.86 kcal/mol
- F35I — higher, 3.85 kcal/mol
- F35P — lower, 2.34 kcal/mol
- F35R — lower, 2.98 kcal/mol
- E15D — higher, 3.7 kcal/mol
- E15L — lower, 3.58 kcal/mol
- E15A — higher, 3.7 kcal/mol
- E15N — lower, 3.57 kcal/mol
- I19L — lower, 3.56 kcal/mol
- I19M — lower, 3.23 kcal/mol
- I19R — lower, 2.81 kcal/mol
- W38P — lower, 2.26 kcal/mol
- W38E — lower, 2.62 kcal/mol
- W38F — lower, 3.65 kcal/mol
- W38D — lower, 2 kcal/mol
- W38Y — lower, 3.37 kcal/mol
- L8I — lower, 3.61 kcal/mol
- L8Q — lower, 3.49 kcal/mol
- L8S — lower, 3.08 kcal/mol
- W34G — lower, 3.11 kcal/mol
- W34H — lower, 3.54 kcal/mol
- W34T — lower, 3.45 kcal/mol
- W34D — lower, 3.39 kcal/mol
- A12E — lower, 3.09 kcal/mol
- A12Y — lower, 3.33 kcal/mol
- A31H — higher, 3.68 kcal/mol
- A31T — higher, 3.86 kcal/mol
- A31F — higher, 3.83 kcal/mol
- A31N — lower, 3.49 kcal/mol
- A31Y — lower, 3.62 kcal/mol
- R41I — higher, 3.74 kcal/mol
- R41E — lower, 3.37 kcal/mol
- R41A — lower, 3.62 kcal/mol
- I36A — lower, 3.35 kcal/mol
- I36Q — lower, 3.11 kcal/mol
- I36N — lower, 2.93 kcal/mol
- I36R — lower, 3.17 kcal/mol
- I36H — lower, 3.15 kcal/mol
- D1R — higher, 4.12 kcal/mol
- D1N — higher, 3.96 kcal/mol
- D1M — higher, 4.11 kcal/mol
- D1T — higher, 4 kcal/mol
- D1V — higher, 4.07 kcal/mol
- D1P — higher, 3.89 kcal/mol
- G32K — higher, 3.68 kcal/mol
- G32D — lower, 3.14 kcal/mol
- G32M — higher, 4.07 kcal/mol
- G32V — higher, 3.86 kcal/mol
- G23W — higher, 4.11 kcal/mol
- G23N — lower, 3.31 kcal/mol
- E29P — higher, 4.06 kcal/mol
- E29H — the same, 3.67 kcal/mol
- E29S — higher, 3.71 kcal/mol
- E29K — higher, 3.82 kcal/mol
- I26M — lower, 3.32 kcal/mol
- I26E — lower, 3.33 kcal/mol
- I26C — higher, 4.36 kcal/mol
- I26Y — lower, 3.34 kcal/mol
- I26P — lower, 3.18 kcal/mol
- I26F — lower, 3.44 kcal/mol
- I26S — lower, 3.07 kcal/mol
- I26W — lower, 3.39 kcal/mol
- F42H — lower, 3.45 kcal/mol
- F42Q — lower, 3.29 kcal/mol
- F42L — higher, 3.73 kcal/mol
- F42K — lower, 3.15 kcal/mol
- F42W — higher, 4.07 kcal/mol
- E3H — higher, 4.02 kcal/mol
- E3N — higher, 3.87 kcal/mol
- E3F — higher, 4.06 kcal/mol
- E3S — higher, 3.74 kcal/mol
- E3A — higher, 3.87 kcal/mol
- E3K — higher, 3.8 kcal/mol
- L43T — lower, 3.24 kcal/mol
- L43R — lower, 3.03 kcal/mol
- E7G — higher, 3.89 kcal/mol
- E7H — higher, 3.84 kcal/mol
- E7F — higher, 3.74 kcal/mol
- E18Y — higher, 3.78 kcal/mol
- E18A — higher, 3.74 kcal/mol
- E18I — higher, 4.02 kcal/mol
- E18W — higher, 3.78 kcal/mol
- E18M — lower, 3.66 kcal/mol
- E18Q — higher, 3.74 kcal/mol
- E10F — higher, 3.69 kcal/mol
- E10Q — higher, 3.83 kcal/mol
- E10W — higher, 4.21 kcal/mol
- E10C — higher, 4.65 kcal/mol
- E10Y — higher, 3.81 kcal/mol
- R25H — higher, 3.72 kcal/mol
- R25S — lower, 3.51 kcal/mol
- V24A — lower, 3.15 kcal/mol
- V24L — lower, 3.43 kcal/mol
- V24M — lower, 3.43 kcal/mol
- V24R — lower, 3 kcal/mol
- V24E — lower, 2.9 kcal/mol
- K14A — higher, 3.73 kcal/mol
- K14I — lower, 3.6 kcal/mol
- I20W — lower, 3.4 kcal/mol
- I20G — lower, 2.71 kcal/mol
- I39E — lower, 2.69 kcal/mol
- I39C — lower, 3.49 kcal/mol
- I39Q — lower, 2.63 kcal/mol
- I39T — lower, 2.46 kcal/mol
- I39P — lower, 2.22 kcal/mol
- I39N — lower, 2.64 kcal/mol
- I39G — lower, 2.66 kcal/mol
- L21I — higher, 3.83 kcal/mol
- L21Y — lower, 3.28 kcal/mol
- L21R — lower, 3.14 kcal/mol
- L21G — lower, 2.83 kcal/mol
- L21N — lower, 3.01 kcal/mol
- L21S — lower, 3.12 kcal/mol
- R40E — lower, 2.85 kcal/mol
- R40G — lower, 3.04 kcal/mol
- T27R — lower, 3.52 kcal/mol
- T27N — higher, 3.99 kcal/mol
- T27H — higher, 3.79 kcal/mol
- T27P — lower, 3.18 kcal/mol
- I6A — lower, 3.38 kcal/mol
- I6M — lower, 3.3 kcal/mol
- I6K — lower, 3.24 kcal/mol
- I6F — lower, 3.48 kcal/mol
- V9L — lower, 3.59 kcal/mol
- E37R — lower, 3.62 kcal/mol
- E37A — higher, 3.81 kcal/mol
- E37P — lower, 2.92 kcal/mol
- E37N — lower, 3.62 kcal/mol
- E37M — higher, 3.83 kcal/mol
- S28M — lower, 3.33 kcal/mol
- S28D — lower, 3.63 kcal/mol
- S28A — lower, 3.52 kcal/mol
- S28L — higher, 3.73 kcal/mol
- S28E — lower, 3.23 kcal/mol
- E4N — higher, 3.78 kcal/mol
- E4G — higher, 3.92 kcal/mol
- E4M — higher, 4.01 kcal/mol
- L22P — lower, 2.68 kcal/mol
- L22H — lower, 3.12 kcal/mol
- L22E — lower, 2.7 kcal/mol
- A2M — higher, 3.92 kcal/mol
- A2W — higher, 4.53 kcal/mol
- A2N — lower, 3.4 kcal/mol
- A2P — lower, 3.65 kcal/mol

— the MegaScale stability set (Tsuboyama et al. 2023)
